Data on two substances can be found in PMC10959496 (European journal of medicinal chemistry, 2023).

Data set [1] concerns the target T1, EphA4 (Homo sapiens, UniProt P54764). Conditions: cited from earlier work.
Data set [2] has as its target T1, EphA4. Description: ELISA measuring EphA4 activation. It counts as cell-based. Particulars: HEK-EphA4 cells, ratio of IC50 values. For orientation: In an ELISA, binding on a coated surface is turned into a signal by an enzyme label.
For data set [3] the following is noted: mouse, ip.

T1 sequence (P54764 20-986, species assumed): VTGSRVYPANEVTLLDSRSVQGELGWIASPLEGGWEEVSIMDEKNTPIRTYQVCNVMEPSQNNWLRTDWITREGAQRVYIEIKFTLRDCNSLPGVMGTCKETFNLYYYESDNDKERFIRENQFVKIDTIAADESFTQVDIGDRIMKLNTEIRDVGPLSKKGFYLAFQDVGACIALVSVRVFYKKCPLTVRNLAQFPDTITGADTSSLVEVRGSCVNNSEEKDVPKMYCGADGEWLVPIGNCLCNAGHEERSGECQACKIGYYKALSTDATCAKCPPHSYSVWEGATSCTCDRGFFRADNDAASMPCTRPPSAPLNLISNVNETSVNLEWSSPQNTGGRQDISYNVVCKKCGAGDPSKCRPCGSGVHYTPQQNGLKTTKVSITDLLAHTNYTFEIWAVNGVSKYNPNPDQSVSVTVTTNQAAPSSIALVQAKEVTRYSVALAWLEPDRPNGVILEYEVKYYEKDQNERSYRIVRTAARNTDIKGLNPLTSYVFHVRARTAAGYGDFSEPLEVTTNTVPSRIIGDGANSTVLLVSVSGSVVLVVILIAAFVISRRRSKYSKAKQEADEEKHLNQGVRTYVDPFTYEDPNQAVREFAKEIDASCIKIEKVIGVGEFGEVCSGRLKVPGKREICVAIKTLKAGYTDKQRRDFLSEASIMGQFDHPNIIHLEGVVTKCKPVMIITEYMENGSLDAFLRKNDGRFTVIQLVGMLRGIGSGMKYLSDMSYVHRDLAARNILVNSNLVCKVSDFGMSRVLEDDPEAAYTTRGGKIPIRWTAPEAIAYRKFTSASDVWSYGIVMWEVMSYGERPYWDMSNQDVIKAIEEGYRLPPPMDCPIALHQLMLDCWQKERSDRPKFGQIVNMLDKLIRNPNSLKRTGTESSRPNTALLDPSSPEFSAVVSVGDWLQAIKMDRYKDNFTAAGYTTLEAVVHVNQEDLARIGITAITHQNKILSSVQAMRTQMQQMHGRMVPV

Turning to APYCVYRβASWSC-NH2 (disulfide) [APY-d2], the “More potent than APY” value in data set [1] is on record as 50 fold.

Take “APY-d3-PEG4: APY-d3 conjugated to 30 kDa metoxy-PEG-azide through 3 amino-hexanoic acid groups and propargyl-glycine by click chemistry”: the “Potency in cells lower than that of APY-d3” value in data set [2] is reported as ~ 4 fold. The “Blood concentration at 20 hours after injection” value in data set [3] (in vivo, 0.8 mg per mouse, 20 h) is on record as ~ 3 μM. In addition, in data set [3] (in vivo, 0.8 mg per mouse, 48 h), the “Blood concentration at 48 hours after injection” value stood at 400 nM. Moreover, in data set [3], the “In vivo half-life after intraperitoneal injection” value was > 10 h.
